# Measured values from patent US11535650 (RA PHARMACEUTICALS, dated 2022).
# Starred links: 1 amine or outer side, 2 acyl side, 3 side chain; linkers in the order of their positions; H or OH if unused. Positions of bridges follow the written chain, without caps; N, C: chain ends. Non-standard residues stand in square brackets, D forms with d. Primed or numbered codes have the meaning given here. No end group written: not given here. Lys‑C8 = N-ε-caprylic lysine, CCCCCCCC(=O)NCCCC[C@H](N[*:1])C(=O)[*:2]; mXylyl(3) = bridging moiety between the two residues given in brackets; mXylyl″ = bridging moiety between the two marked residues; mXylyl = bridging moiety between residues (mXylyl(i,j)); Ala(1H-tetrazol-5-yl) = N[C@@H](Cc1nnn[nH]1)C(=O)O; Trp(7-aza) = N[C@@H](Cc1c[nH]c2ncccc12)C(=O)O; NMeD = CN[C@@H](CC(=O)O)C(=O)O; dPhg = N[C@@H](C(=O)O)c1ccccc1; Chg = N[C@H](C(=O)O)C1CCCCC1; Phg = N[C@H](C(=O)O)c1ccccc1; Tle = CC(C)(C)[C@H](N)C(=O)O; Lys‑C12 = N-ε-lauryl lysine; NMeS = CN[C@@H](CO)C(=O)O; NMeA = CN[C@@H](C)C(=O)O; Pra = C#CC[C@H](N)C(=O)O; Nva = CCC[C@H](N)C(=O)O; Sar = CNCC(=O)O
# Target: human C5 protein (human, UniProt P01031 19-673; P01031 678-1676)
# Test: cell-based or functional assay
row,Binder,"Avg. IC50, human hemolysis assay (complete human sera) [nM]"
1,Ac-[Nva]C[Phg]TAEY[NMeS]HC[Nva]-NH2 (linker 2-10 via mXylyl) [R3034],> 50000
2,Ac-[Tle]Y[Trp(7-aza)]EYP[Phg][Nva]-NH2 (SMILES CCC[C@H](NC(=O)[C@@H](NC(=O)[C@@H]1CCCN1C(=O)[C@H](Cc1ccc(O)cc1)NC(=O)[C@H](CCC(=O)O)NC(=O)[C@H](Cc1c[nH]c2ncccc12)NC(=O)[C@H](Cc1ccc(O)cc1)NC(=O)[C@@H](NC(C)=O)C(C)(C)C)c1ccccc1)C(N)=O) [R3028],> 10000
3,Ac-CAERFCD[Tle]Y[Trp(7-aza)]EYP[dPhg]K-NH2 (linker 1-6 via mXylyl″) [R3162],16.5
4,Ac-[Nva]C[Phg]T[Trp(7-aza)]EY[NMeS]HCA-NH2 (linker 2-10 via mXylyl) [R3039],240
5,Ac-C[Tle]ERFCDVYWEF-NH2 (linker 1-6 via mXylyl″) [R3146],107
6,Ac-[Nva]CYEN[Tle]Y[Trp(7-aza)]ECP[Phg][Nva]-NH2 (linker 2-10 via mXylyl) [R3018],> 5730
7,Ac-CVEAFCD[Tle]Y[Trp(7-aza)]EYP[dPhg][Nva]-NH2 (linker 1-6 via mXylyl″) [R3154],592
8,Ac-CVEAFCD[Tle]Y[Trp(7-aza)]EYP[Phg][Nva]-NH2 (linker 1-6 via mXylyl″) [R3153],175
9,"CVERFCDGYWEYP ([mXylyl(1,6)]Ac-C-V-E-R-F-C-D-Tbg-Y-W-E-Y-P-NH2) [R3143]",18.6
10,Ac-[Nva]CYEN[Tle]YCEYP[Phg][Nva]-NH2 (linker 2-8 via mXylyl) [R3017],> 100000
11,Ac-[Nva]C[Phg]T[Trp(7-aza)]EA[NMeS]HC[Nva]-NH2 (linker 2-10 via mXylyl) [R3036],> 50000
12,Ac-[Nva]C[Phg]T[Trp(7-aza)]EY[NMeS]AC[Nva]-NH2 (linker 2-10 via mXylyl) [R3038],140
13,Ac-CAERFCD[Tle]Y[Trp(7-aza)]EYP[Phg][Lys‑C8]-NH2 (linker 1-6 via mXylyl″) [R3166],17.5
14,Ac-CVERFCDVYWEF[Pra]-NH2 (linker 1-6 via mXylyl″) [R3147],138
15,Ac-[Nva]C[Phg]T[Trp(7-aza)]EY[NMeS]HC[Nva]P[Nva]-NH2 (cysteine pairing not given here) [R3022],> 10200
16,Ac-CVERFCDVY[Trp(7-aza)]EYP-NH2 (linker 1-6 via mXylyl″) [R3142],44.6
17,Ac-CVARFCD[Tle]Y[Trp(7-aza)]EYP[Phg][Nva]-NH2 (linker 1-6 via mXylyl″) [R3150],32
18,Ac-[Nva]CYEN[Tle]Y[Trp(7-aza)]EYP[Phg][Nva]C-NH2 (linker 2-14 via mXylyl) [R3019],1320
19,Ac-CAERFCD[Tle]Y[Trp(7-aza)]EYP[Phg]K-NH2 (linker 1-6 via mXylyl″) [R3161],7
20,Ac-CVERFC[Ala(1H-tetrazol-5-yl)][Tle]Y[Trp(7-aza)]EYP[Chg][Nva]-NH2 (linker 1-6 via mXylyl(3)) [R3168],7.5

row,Binder,"Avg. IC50, human hemolysis assay (complete human sera) [nM]"
1,Ac-CVERFC[NMeD][Tle]Y[Trp(7-aza)]EYP[Chg][Nva]-NH2 (linker 1-6 via mXylyl″) [R3172],12
2,Ac-CVARFCD[Tle]Y[Trp(7-aza)]EYP[dPhg][Nva]-NH2 (linker 1-6 via mXylyl″) [R3151],165
3,Ac-[Nva]C[Phg]A[Trp(7-aza)]EY[NMeS]HC[Nva]-NH2 (linker 2-10 via mXylyl) [R3033],131
4,Ac-[Nva]CYEN[Tle]Y[Trp(7-aza)]EY[Sar][Nva][NMeS]-NH2 (SMILES CCC[C@H](NC(C)=O)C(=O)N[C@@H](CS)C(=O)N[C@@H](Cc1ccc(O)cc1)C(=O)N[C@@H](CCC(=O)O)C(=O)N[C@@H](CC(N)=O)C(=O)N[C@H](C(=O)N[C@@H](Cc1ccc(O)cc1)C(=O)N[C@@H](Cc1c[nH]c2ncccc12)C(=O)N[C@@H](CCC(=O)O)C(=O)N[C@@H](Cc1ccc(O)cc1)C(=O)N(C)CC(=O)N[C@@H](CCC)C(=O)N(C)[C@@H](CO)C(N)=O)C(C)(C)C) [R3001],67.2
5,Ac-CVERFCA[Tle]Y[Trp(7-aza)]EYP[Phg][Nva]-NH2 (linker 1-6 via mXylyl″) [R3157],84.5
6,Ac-C[Phg]T[Trp(7-aza)]EY[NMeS]HC-NH2 (linker 1-9 via mXylyl) [R3015],> 3960
7,Ac-CAERFCD[Tle]YWEYP[dPhg][Nva]-NH2 (linker 1-6 via mXylyl″) [R3149],13.6
8,Ac-CVERACD[Tle]Y[Trp(7-aza)]EYP[Phg][Nva]-NH2 (linker 1-6 via mXylyl″) [R3155],1530
9,Ac-CVERFCA[Tle]Y[Trp(7-aza)]EYP[dPhg][Nva]-NH2 (linker 1-6 via mXylyl″) [R3158],327
10,Ac-CAERFCD[Tle]YWEYP[Phg][Nva]-NH2 (linker 1-6 via mXylyl″) [R3148],8.5
11,MCSERYCEVRWEY-NH2 (linker 2-7 via mXylyl) [R3020],24.6
12,Ac-CAERFCD[Tle]Y[Trp(7-aza)]EYP[Phg][Lys‑C12]-NH2 (linker 1-6 via mXylyl″) [R3164],36
13,Ac-YEN[Tle]YWEYP[Phg][Nva]-NH2 (SMILES CCC[C@H](NC(=O)[C@@H](NC(=O)[C@@H]1CCCN1C(=O)[C@H](Cc1ccc(O)cc1)NC(=O)[C@H](CCC(=O)O)NC(=O)[C@H](Cc1c[nH]c2ccccc12)NC(=O)[C@H](Cc1ccc(O)cc1)NC(=O)[C@@H](NC(=O)[C@H](CC(N)=O)NC(=O)[C@H](CCC(=O)O)NC(=O)[C@H](Cc1ccc(O)cc1)NC(C)=O)C(C)(C)C)c1ccccc1)C(N)=O) [R3041],71.3
14,Ac-[Nva]C[Phg]T[Trp(7-aza)]EY[NMeS]HC[Nva]P[Nva] (bridge 2-10) [R3040],> 100000
15,Ac-[Nva]C[Phg]T[Trp(7-aza)]EY[NMeA]HC[Nva]-NH2 (linker 2-10 via mXylyl) [R3037],276
16,Ac-CVERACD[Tle]Y[Trp(7-aza)]EYP[dPhg][Nva]-NH2 (linker 1-6 via mXylyl″) [R3156],> 10000
17,Ac-AC[Phg]T[Trp(7-aza)]EY[NMeS]HC[Nva]-NH2 (linker 2-10 via mXylyl) [R3031],1090
18,Ac-[Nva]CAT[Trp(7-aza)]EY[NMeS]HC[Nva]-NH2 (linker 2-10 via mXylyl) [R3032],> 10000
19,Ac-C[Tle]Y[Trp(7-aza)]EY[NMeS]HC-NH2 (linker 1-9 via mXylyl) [R3016],> 13000
20,Ac-[Nva]C[Phg]T[Trp(7-aza)]AY[NMeS]HC[Nva]-NH2 (linker 2-10 via mXylyl) [R3035],> 50000
